Experimental findings from article doi:10.1101/2020.10.30.361790 are described below.

In general, Kd refers to the constant that tells how readily two partners part at equilibrium. Read a low Kd as tighter binding. A word on the koff: it is the rate constant with which the complex falls apart. Low values mean a long-lived complex, high ones a short-lived complex. The kon is a measure of how fast the partners come together. In general, EC50 refers to the concentration giving half of the maximal effect. Low readings indicate a more potent agent, high ones a less potent agent.

For test [1], the target named is fluorescein-ahx-ahx-EPQpYEEIPIYL
Put plainly: fluorescence polarisation.

Test [2] addresses biotin-ahx-ahx-EPQpYEEIPIYL
Put plainly: BLI. In general terms: In BLI a coated tip is dipped into the sample, and binding shifts an interference pattern.

The target of test [3] is fluorescein-ahx-ahx-GGpYGG. Put plainly: fluorescence polarisation.
In test [4] the target is 9 of the 22 variants that have the K8L mutation (His-tag proteins). Put plainly: ELISA. (ELISA stands for enzyme-linked immunosorbent assay.)
Test [5] concerns the target Fyn SH2 triple mutant superbinder (T4V/S6A/K8L), His-tag protein (human). Put plainly: ELISA.
Test [6] concerns the target Fyn SH2 variant V10 (T4V/K8L), His-tag protein (human). Put plainly: ELISA.
For test [7], the target named is Fyn SH2 variant V13 (T3S/T4R/S6A/K8L), His-tag protein (human). Put plainly: ELISA.
For test [8], the target named is Fyn SH2 variant V17 (T4N/A5S/K8L), His-tag protein (human). Put plainly: ELISA.
In test [9] the target is Fyn SH2 variant V24 (T3S/T4S/S6A/K8L), His-tag protein (human). Put plainly: ELISA.
Test [10] deals with Fyn SH2 variant V3 (T3S/T4W/A5G), His-tag protein (human). Put plainly: ELISA.

Square brackets hold non-standard residues; d marks the D form. Ends that are not written are not given here. * marks the point of attachment. Biotin = O=C1N[C@H]2[C@H](CS[C@H]2CCCCC(=O)*)N1; pY = N[C@@H](Cc1ccc(OP(=O)(O)O)cc1)C(=O)O; Ahx = NCCCCCC(=O)O

“Fyn SH2 variant V17 (T4N/A5S/K8L), His-tag protein (designed binder)”: in test [1], the Kd was < 40 nM, the fold affinity increase over the wild type Fyn SH2 domain turned out to be 4 fold and the fold weaker than the triple mutant came out at 4 fold.

Consider “wild type human Fyn SH2 domain (Cys-less), His-tag protein (from UniProt P06241 149-246) (domain or fragment)”, for which, in [1], the Kd is 327 nM. Also, in test [2], the Kd worked out at 154 nM, the koff is 0.01 s⁻¹ and the kon stood at 64800 M⁻¹ s⁻¹.

Consider “Fyn SH2 variant V13 (T3S/T4R/S6A/K8L), His-tag protein (designed binder)”, for which the Kd in test [1] was found to be 12 nM; in [3], 620 nM.

As to “Fyn SH2 triple mutant superbinder (T4V/S6A/K8L), His-tag protein (designed binder)”, in [1], the dissociation constant (Kd) was found to be 20 nM. Moreover, the Kd in [3] amounted to 680 nM. In test [2], this molecule had a Kd of 55 nM, a koff of 0.000888 s⁻¹ and an on-rate (kon) of 16300 M⁻¹ s⁻¹.

Regarding “Fyn SH2 variant V10 (T4V/K8L), His-tag protein (designed binder)”, the dissociation constant Kd in test [1] came to 32 nM; in test [3] it was 2700 nM.

As to “Fyn SH2 variant V3 (T3S/T4W/A5G), His-tag protein (designed binder)”, the Kd in test [1] came out at 38 nM; in test [3] it was 1630 nM; in test [2], 55 nM. For the same molecule, the koff in test [2] amounted to 0.000463 s⁻¹.

For the molecule “Fyn SH2 variant V24 (T3S/T4S/S6A/K8L), His-tag protein (designed binder)”, the Kd in test [1] amounted to 23 nM; in test [3], 2570 nM.

For the molecule {Biotin-Ahx-Ahx}-EPQ[pY]EEIPIYL [biotin-ahx-ahx-EPQpYEEIPIYL], the EC50 is 21 to 500 nM in test [4]; 21 nM in test [5]; 175 nM in test [6]; < 200 nM in [7]; < 200 nM in test [8]; < 200 nM in test [9]. This molecule had an EC50 in [10] of 15 nM.
